US11278600B2, “Human alpha-galactosidase variants” (Codexis, Inc., priority 2014, dated 2022)
Substitutions are numbered along the chain they refer to.

B1: 538 (protein)
chain: LDNGLARTPTMGWLHWERFMCNLDCQEEPDSCISEKLFMEMAERMVSEGWKDAGYEYLCIDDCWMAPQRDSEGRLQADPQRFPHGIRQLANHVHSKGLKLGIYADVGNKTCAGFPGSFGYYDIDAQTFADWGVDLLKFDGCYCDSLENLADGYKHMSLALNRTGRSIVYSCEWPLYMWPFQKPNYTEIRQYCNHWRNFADIDDSWASIKSILDWTSRNQERIVDVAGPGGWNDPDMLVIGNFGLSWDQQVTQMALWAIMAAPLFMSNDLRHISPQAKALLQDKDVICINQDPLGKQGYQLRKGDNFEVWERPLSGDAWAVAIINRQEIGGPRSYTIPVASLGKGVACNPACFITQLLPVKRQLGFYNWTSRLKSHINPTGTVLLQLENTMQMSLKDLL
modifications: Synthetic Polypeptide sequence of Variant No. 538 of mature Human GLA
B2: 546 (protein)
chain: B1 chain with C287A, K295E
modifications: Synthetic Polypeptide sequence of Variant No. 546 of mature Human GLA
B3: 540 (protein)
chain: B1 chain with C287M
modifications: Synthetic Polypeptide sequence of Variant No. 540 of mature Human GLA
B4: 539 (protein)
chain: B1 chain with C287H
modifications: Synthetic Polypeptide sequence of Variant No. 539 of mature Human GLA
B5: 543 (protein)
chain: B1 chain with D282M, C287A
modifications: Synthetic Polypeptide sequence of Variant No. 543 of mature Human GLA
B6: 544 (protein)
chain: B1 chain with D282V, C287A
modifications: Synthetic Polypeptide sequence of Variant No. 544 of mature Human GLA
B7: 545 (protein)
chain: B1 chain with C287A, K295A
modifications: Synthetic Polypeptide sequence of Variant No. 545 of mature Human GLA
B8: 541 (protein)
chain: B1 chain with D282A, C287A
modifications: Synthetic Polypeptide sequence of Variant No. 541 of mature Human GLA
B9: 516 (protein)
chain: B1 chain with D2E, C287A, Q326G
modifications: Synthetic Polypeptide sequence of Variant No. 516 of mature Human GLA
B10: 542 (protein)
chain: B1 chain with D282G, C287A
modifications: Synthetic Polypeptide sequence of Variant No. 542 of mature Human GLA
B11: 611 (protein)
chain: B1 chain with S166P, C287A, M390Q
modifications: Synthetic Polypeptide sequence of Variant No. 611 of mature Human GLA
B12: 633 (protein)
chain: B1 chain with E43D, H92S, S166P, C287A
modifications: Synthetic Polypeptide sequence of Variant No. 633 of mature Human GLA
B13: 610 (protein)
chain: B1 chain with S47T, S166P, M259E, C287A, M390Q
modifications: Synthetic Polypeptide sequence of Variant No. 610 of mature Human GLA
B14: 634 (protein)
chain: B1 chain with E43D, H92E, S166P, C287A
modifications: Synthetic Polypeptide sequence of Variant No. 634 of mature Human GLA

Assay: HTP-analysis of yeast culture supernatants, no challenge (MUGal hydrolysis)
Assay type: biochemical
Settings: activity of the variant/activity of Rd3BB (SEQ ID NO: 13)
Method in brief: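 GLA variants were expressed in INVSc1 yeast grown in SD-Ura broth with glucose at 30° C., and culture supernatants were collected after 66-84 h. Supernatant was mixed with McIlvaine buffer pH 4.8 and MUGal (2 mM stock) in 50 mM citrate, 200 mM KCl, pH 4.6, incubated at 37° C. for 30-180 minutes, then quenched with sodium carbonate.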

Molecule | Relative Activity of GLA Variants After No Challenge (NC)
B1 | + (+ = 1.5 to 5 relative activity over Rd3BB (SEQ ID NO: 13))
B2 | + (+ = 1.5 to 5 relative activity over Rd3BB (SEQ ID NO: 13))
B3 | + (+ = 1.5 to 5 relative activity over Rd3BB (SEQ ID NO: 13))
B4 | + (+ = 1.5 to 5 relative activity over Rd3BB (SEQ ID NO: 13))
B5 | + (+ = 1.5 to 5 relative activity over Rd3BB (SEQ ID NO: 13))
B6 | + (+ = 1.5 to 5 relative activity over Rd3BB (SEQ ID NO: 13))
B7 | + (+ = 1.5 to 5 relative activity over Rd3BB (SEQ ID NO: 13))
B8 | + (+ = 1.5 to 5 relative activity over Rd3BB (SEQ ID NO: 13))
B9 | + (+ = 1.5 to 5 relative activity over Rd3BB (SEQ ID NO: 13))
B10 | + (+ = 1.5 to 5 relative activity over Rd3BB (SEQ ID NO: 13))

Same assay, conditions: activity of the variant/activity of Rd3BB (SEQ ID NO: 13), yeast supernatant

Molecule | Relative Activity of GLA Variants After No Challenge (NC)
B11 | + (+ = 1.5 to 5 relative activity over Rd3BB (SEQ ID NO: 13))
B12 | + (+ = 1.5 to 5 relative activity over Rd3BB (SEQ ID NO: 13))
B13 | + (+ = 1.5 to 5 relative activity over Rd3BB (SEQ ID NO: 13))
B14 | + (+ = 1.5 to 5 relative activity over Rd3BB (SEQ ID NO: 13))

Assay: HTP-analysis of supernatants pretreated with base (MUGal hydrolysis)
Assay type: biochemical
Settings: activity of the variant/activity of Rd3BB (SEQ ID NO: 13); challenge at pH 9.7
Method in brief: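 Supernatants from INVSc1 yeast expressing GLA variants (SD-Ura, 66-84 h, 30° C) were mixed with McIlvaine buffer pH 7.0-8.2 or 200 mM sodium bicarbonate pH 9.1-9.7 and held 1-18 h at 37° C. Residual activity was then measured on MUGal at pH 4.8/4.3, 37° C, 30-180 min, by fluorescence (Ex 355/Em 448 nm).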

Molecule | Relative Activity of GLA Variants After Challenge at pH 9.7
B1 | + (+ = 1.5 to 5 relative activity over Rd3BB (SEQ ID NO: 13))
B2 | ++ (++ = >5 to 10 relative activity over Rd3BB (SEQ ID NO: 13))
B3 | ++ (++ = >5 to 10 relative activity over Rd3BB (SEQ ID NO: 13))
B4 | ++ (++ = >5 to 10 relative activity over Rd3BB (SEQ ID NO: 13))
B5 | + (+ = 1.5 to 5 relative activity over Rd3BB (SEQ ID NO: 13))
B6 | + (+ = 1.5 to 5 relative activity over Rd3BB (SEQ ID NO: 13))
B7 | ++ (++ = >5 to 10 relative activity over Rd3BB (SEQ ID NO: 13))
B8 | ++ (++ = >5 to 10 relative activity over Rd3BB (SEQ ID NO: 13))
B9 | + (+ = 1.5 to 5 relative activity over Rd3BB (SEQ ID NO: 13))
B10 | ++ (++ = >5 to 10 relative activity over Rd3BB (SEQ ID NO: 13))

Same assay, conditions: challenge at pH 9.7; activity of the variant/activity of Rd3BB (SEQ ID NO: 13); yeast supernatant

Molecule | Relative Activity of GLA Variants After Challenge at pH 9.7
B11 | ++ (++ = >5 to 10 relative activity over Rd3BB (SEQ ID NO: 13))
B12 | ++ (++ = >5 to 10 relative activity over Rd3BB (SEQ ID NO: 13))
B13 | − (− = <1.5 relative activity to Rd3BB (SEQ ID NO: 13))
B14 | ++ (++ = >5 to 10 relative activity over Rd3BB (SEQ ID NO: 13))

Assay: HTP-analysis of supernatants pretreated with acid (MUGal hydrolysis)
Assay type: biochemical
Settings: activity of the variant/activity of Rd3BB (SEQ ID NO: 13); challenge at pH 3.7
Method in brief: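 Supernatants from INVSc1 yeast secreting GLA variants were challenged at 37° C. for 1-3 h in McIlvaine buffer at pH 3.3-4.3. Residual activity was then measured on 4 mM MUGal substrate stock at pH 4.8 with citrate buffer pH 4.3, over 30-180 min at 37° C. Reactions were quenched with sodium carbonate and read by fluorescence (Ex 355/Em 448 nm).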

Molecule | Relative Activity of GLA Variants After Challenge at pH 3.7
B1 | + (+ = 1.5 to 5 relative activity over Rd3BB (SEQ ID NO: 13))
B2 | +++ (+++ = >10 relative activity over Rd3BB (SEQ ID NO: 13))
B3 | + (+ = 1.5 to 5 relative activity over Rd3BB (SEQ ID NO: 13))
B4 | + (+ = 1.5 to 5 relative activity over Rd3BB (SEQ ID NO: 13))
B5 | + (+ = 1.5 to 5 relative activity over Rd3BB (SEQ ID NO: 13))
B6 | + (+ = 1.5 to 5 relative activity over Rd3BB (SEQ ID NO: 13))
B7 | + (+ = 1.5 to 5 relative activity over Rd3BB (SEQ ID NO: 13))
B8 | + (+ = 1.5 to 5 relative activity over Rd3BB (SEQ ID NO: 13))
B9 | +++ (+++ = >10 relative activity over Rd3BB (SEQ ID NO: 13))
B10 | + (+ = 1.5 to 5 relative activity over Rd3BB (SEQ ID NO: 13))

Same assay, conditions: challenge at pH 3.3; activity of the variant/activity of Rd3BB (SEQ ID NO: 13); yeast supernatant

Molecule | Relative Activity of GLA Variants After Challenge at pH 3.3
B11 | +++ (+++ = >10 relative activity over Rd3BB (SEQ ID NO: 13))
B12 | ++ (++ = >5 to 10 relative activity over Rd3BB (SEQ ID NO: 13))
B13 | + (+ = 1.5 to 5 relative activity over Rd3BB (SEQ ID NO: 13))
B14 | ++ (++ = >5 to 10 relative activity over Rd3BB (SEQ ID NO: 13))
